In patent US20180037631A1 (Bristol-Myers Squibb, published 2018):
Where a chain is given by its changes, count along the chain named. Names may count otherwise. Where two headings read alike, the source gives them in different places. Blank lines part the entries; values can stand above or below the binder they belong to.

Key:
[1] = target: T1, IGF-IR on human tumour cells (H292, MCF-7, RH41) (human, UniProt P08069 31-1367); assay: cell-based or functional assay
mouse EGFR = mouse EGFR (mouse, UniProt Q01279 25-647, limits assumed); assay: SPR Biacore
monkey EGFR = monkey EGFR (monkey); assay: SPR Biacore
rat EGFR = rat EGFR (rat, UniProt A0ABK0LZB0 35-1214); assay: SPR Biacore
[2] = target: T1, IGF-IR on human tumour cells (H292, …); assay: cell-based or functional assay; remark: listed apart in the source
[3] = target: T1, IGF-IR on human tumour cells (H292, …); assay: cell-based or functional assay; remark: listed apart in the source
[4] = target: T2, EGFR on the surface of human tumour cells (A431, H292) (human, UniProt P00533 25-1210)
T2 construct: whole, on cells; also called EGF receptor

[5] = target: T2, EGFR on the surface of human tumour …; assay: cell-based or functional assay
[6] = target: T3, IGF1R-Fc (extracellular domain of human IGF1R aa 1-932 fused to hinge and constant regions of human IgG1) (human, UniProt P08069 31-932)
T3 construct: range 1-932; made in house by transient transfection, purified on Protein A; also called IGF-IR-Fc; not shown: hinge and constant regions of human IgG1

[7] = target: T4, Recombinant human EGFR-Fc (aa 1-645 of the extracellular domain of human EGFR fused to human Fc) (human, UniProt P00533 25-645)
T4 construct: range 1-645; bought from R&D Systems; also called EGFR645-Fc; EGFR-Fc (HER-1); not shown: human Fc

[8] = target: T1, IGF-IR on human tumour cells (H292, …); assay: cell-based or functional assay; remark: listed apart in the source
[9] = target: T2, EGFR on the surface of human tumour …; assay: cell-based or functional assay; remark: listed apart in the source
[10] = target: T4, Recombinant human EGFR-Fc (aa 1-645 of …); assay: SPR Biacore
[11] = target: T3, IGF1R-Fc (extracellular domain of human …); assay: SPR Biacore
[12] = target: T3, IGF1R-Fc (extracellular domain of human …); assay: SPR Biacore, IGF1R-Fc; against I1-GS10-E5 pegylated
[13] = target: T4, Recombinant human EGFR-Fc (aa 1-645 of …); assay: SPR Biacore, EGFR645-Fc
[14] = target: T2, EGFR on the surface of human tumour …; assay: cell-based or functional assay; remark: listed apart in the source
[15] = target: T3, IGF1R-Fc (extracellular domain of human …); assay: SPR Biacore, IGF1R-Fc
[16] = target: T4, Recombinant human EGFR-Fc (aa 1-645 of …); assay: SPR Biacore, EGFR645-Fc; against I1-GS10-E5 Pegylated
[17] = target: T3, IGF1R-Fc (extracellular domain of human …); remark: listed apart in the source
[18] = target: T4, Recombinant human EGFR-Fc (aa 1-645 of …); remark: listed apart in the source

inhibition of RH41 cell proliferation, IC50 [1]: 0.2 nM
Kd (mouse EGFR): 3.4 nM
Kd (monkey EGFR): 5.1 nM
Kd (rat EGFR): 3.6 nM
pIGFR IC50 [2]: 2.2 nM
B1: I1-GS10-E5 pegylated, His-tagged (designed binder)
chain: MGVSDVPRDLEVVAATPTSLLISWSARLKVARYYRITYGETGGNSPVQEFTVPKNVYTATISGLKPGVDYTITVYAVTRFRDYQPISINYRTEIDKGSGSGSGSGSGSGSGSGSGSVSDVPRDLEVVAATPTSLLISWWAPVDRYQYYRITYGETGGNSPVQEFTVPRDVYTATISGLKPGVDYTITVYAVTDYKPHADGPHTYHESPISINYRTEIDKPCQHHHHHH
modifications: 40 kDa branched PEG on the Cys of the C-terminal Cys tail
notes: also called I1-GS10-E5 (with Peg)

Kd (mouse EGFR): 2.7 nM
Kd (monkey EGFR): 4.4 nM
Kd (rat EGFR): 2.9 nM
IC50, IGF1-stimulated IGFR phosphorylation, H292 cells, ELISA [3]: 0.5 nM
B2: I1-GS10-E105 pegylated, His-tagged (designed binder)
chain: B1 chain with W139D, V142T, D143S, R168G, D169G, V170L, Y171S
modifications: 40 kDa branched PEG on the Cys of the C-terminal Cys tail

IC50 [4]: 37.8 nM
Kd (mouse EGFR): 13.9 nM
Kd (monkey EGFR): 7 nM
Kd (rat EGFR): 10.7 nM
IC50, IGF1-stimulated IGFR phosphorylation, H292 cells, ELISA [3]: 0.7 nM
IC50, EGF-induced EGFR phosphorylation, A431 cells, In Cell Western [5]: 22 nM
IC50, EGF-induced ERK phosphorylation, A431 cells, In Cell Western [5]: 23 nM
IC50, EGF-stimulated EGFR phosphorylation, H292 cells, ELISA [5]: 8 nM
Kd [6]: 0.43 nM
Kd [7]: 5.97 nM
B3: I1-GS10-E85 pegylated, His-tagged (designed binder)
chain: MGVSDVPRDLEVVAATPTSLLISWSARLKVARYYRITYGETGGNSPVQEFTVPKNVYTATISGLKPGVDYTITVYAVTRFRDYQPISINYRTEIDKGSGSGSGSGSGSGSGSGSGSVSDVPRDLEVVAATPTSLLISWTQGSTHYQYYRITYGETGGNSPVQEFTVPGMVYTATISGLKPGVDYTITVYAVTDYFDRSTHEYKYRTTPISINYRTEIDKPCQHHHHHH
modifications: 40 kDa branched PEG on the Cys of the C-terminal Cys tail

IC50, IGF1-stimulated IGFR phosphorylation, H292 cells, ELISA [8]: 0.9 nM
IC50, EGF-stimulated EGFR phosphorylation, A431 cells, In Cell Western [9]: 302 nM
IC50, EGF-stimulated EGFR phosphorylation, H292 cells, ELISA [9]: 127 nM
IC50, EGF-stimulated ERK phosphorylation, A431 cells, In Cell Western [9]: 300 nM
B4: I1-GS10-E1 pegylated, His-tagged (designed binder)
chain: MGVSDVPRDLEVVAATPTSLLISWSARLKVARYYRITYGETGGNSPVQEFTVPKNVYTATISGLKPGVDYTITVYAVTRFRDYQPISINYRTEIDKGSGSGSGSGSGSGSGSGSGSVSDVPRDLEVVAATPTSLLISWVAGAEDYQYYRITYGETGGNSPVQEFTVPHDLVTATISGLKPGVDYTITVYAVTDMMHVEYTEHPISINYRTEIDKPCQHHHHHH
modifications: 40 kDa branched PEG on the Cys of the C-terminal Cys tail

IC50, IGF1-stimulated IGFR phosphorylation, H292 cells, ELISA [8]: 2 nM
IC50, EGF-stimulated EGFR phosphorylation, A431 cells, In Cell Western [9]: 47 nM
IC50, EGF-stimulated EGFR phosphorylation, H292 cells, ELISA [9]: 46 nM
IC50, EGF-stimulated ERK phosphorylation, A431 cells, In Cell Western [9]: 50 nM
B5: I1GS10-E3 (Pegylated) (designed binder)
I/E tandem 10Fn3 chain: B4 chain with V139L, A140P, A142K, E143L, D144R, V171R, D193N, T200S, H202Y
modifications: Cys of the C-terminal Cys tail conjugated to 40 kDa branched PEG

Kd [10]: 1.4 nM
Kd [11]: 0.25 nM
ΔKd (fold) [12]: 1 fold
Δka (fold) [12]: 1 fold
Δkd (fold) [12]: 1 fold
Kd [13]: 1.4 nM
koff [13]: 4.52e-05 s⁻¹
kon [13]: 33400 M⁻¹ s⁻¹
pIGFR IC50 [2]: 1.2 nM
pEGFR IC50 [14]: 28.7 nM
pERK IC50 [14]: 19 nM
Kd [15]: 0.25 nM
koff [15]: 0.000265 s⁻¹
kon [15]: 1.07e+06 M⁻¹ s⁻¹
ΔKd (fold) [16]: 2 fold
Δka (fold) [16]: 1.1 fold
Δkd (fold) [16]: 1.6 fold
B6: I1-GS10-E5-GSGC pegylated (designed binder)
chain: MGVSDVPRDLEVVAATPTSLLISWSARLKVARYYRITYGETGGNSPVQEFTVPKNVYTATISGLKPGVDYTITVYAVTRFRDYQPISINYRTEIEKGSGSGSGSGSGSGSGSGSGSVSDVPRDLEVVAATPTSLLISWWAPVDRYQYYRITYGETGGNSPVQEFTVPRDVYTATISGLKPGVDYTITVYAVTDYKPHADGPHTYHESPISINYRTEGSGCHHHHHH
modifications: PEG on the Cys of the GSGC tail of E5
notes: alternative clone of I1-GS10-E5 pegylated; also called I1-GS10-E5-GSGC(4)

Kd [17]: 0.03 nM
koff [17]: 4.54e-05 s⁻¹
kon [17]: 1.37e+06 M⁻¹ s⁻¹
IC50, IGF1-stimulated IGFR phosphorylation, H292 cells, ELISA [8]: 19 nM
IC50, EGF-stimulated EGFR phosphorylation, A431 cells, In Cell Western [9]: 47 nM
IC50, EGF-stimulated EGFR phosphorylation, H292 cells, ELISA [9]: 25 nM
IC50, EGF-stimulated ERK phosphorylation, A431 cells, In Cell Western [9]: 42 nM
Kd [18]: 2.48 nM
koff [18]: 0.000291 s⁻¹
kon [18]: 117000 M⁻¹ s⁻¹
B7: I1-GS10-E3, non-pegylated (designed binder)
chain: VSDVPRDLEVVAATPTSLLISWSARLKVARYYRITYGETGGNSPVQEFTVPKNVYTATISGLKPGVDYTITVYAVTRFRDYQPISINYRTEIDKGSGSGSGSGSGSGSGSGSGSVSDVPRDLEVVAATPTSLLISWLPGKLRYQYYRITYGETGGNSPVQEFTVPHDLRTATISGLKPGVDYTITVYAVTNMMHVEYSEYPISINYRTEIDKPSQ

Kd [10]: 1.7 nM
Kd [11]: 0.26 nM
ΔKd (fold) [12]: 1 fold
Δka (fold) [12]: 1 fold
Δkd (fold) [12]: 0.9 fold
Kd [13]: 1.7 nM
koff [13]: 3.04e-05 s⁻¹
kon [13]: 17800 M⁻¹ s⁻¹
pIGFR IC50 [2]: 2.2 nM
pEGFR IC50 [14]: 68.4 nM
pERK IC50 [14]: 30 nM
Kd [15]: 0.26 nM
koff [15]: 0.000279 s⁻¹
kon [15]: 1.07e+06 M⁻¹ s⁻¹
ΔKd (fold) [16]: 1.6 fold
Δka (fold) [16]: 0.6 fold
Δkd (fold) [16]: 2.4 fold
B8: I1-GS10-E5(S62C) pegylated (designed binder)
chain: MGVSDVPRDLEVVAATPTSLLISWSARLKVARYYRITYGETGGNSPVQEFTVPKNVYTATISGLKPGVDYTITVYAVTRFRDYQPISINYRTEIEKGSGSGSGSGSGSGSGSGSGSVSDVPRDLEVVAATPTSLLISWWAPVDRYQYYRITYGETGGNSPVQEFTVPRDVYTATICGLKPGVDYTITVYAVTDYKPHADGPHTYHESPISINYRTEHHHHHH
modifications: PEG on Cys at position 62 of E5 (position of SEQ ID NO: 1)
notes: also called I1-GS10-E5(S62C)(6)

Kd [10]: 17.9 nM
Kd [11]: 0.28 nM
ΔKd (fold) [12]: 0.9 fold
Δka (fold) [12]: 0.9 fold
Δkd (fold) [12]: 0.9 fold
Kd [13]: 17.9 nM
koff [13]: 0.000193 s⁻¹
kon [13]: 10800 M⁻¹ s⁻¹
pIGFR IC50 [2]: 2.1 nM
pEGFR IC50 [14]: 22.6 nM
pERK IC50 [14]: 29 nM
Kd [15]: 0.28 nM
koff [15]: 0.000281 s⁻¹
kon [15]: 986000 M⁻¹ s⁻¹
ΔKd (fold) [16]: 0.2 fold
Δka (fold) [16]: 0.4 fold
Δkd (fold) [16]: 0.4 fold
B9: I1-GS10-E5(S91C) pegylated (designed binder)
chain: B8 chain with C176S, S210C
modifications: PEG on Cys at position 91 of E5 (position of SEQ ID NO: 1)
notes: also called I1-GS10-E5(S91C)(8)
